From PMC10841698 (Cell, 2023) come the findings set out here.

Experiment [1] deals with T1, human full-length RECK without a tag (human, UniProt O95980 23-942).
T1 sequence (looked up): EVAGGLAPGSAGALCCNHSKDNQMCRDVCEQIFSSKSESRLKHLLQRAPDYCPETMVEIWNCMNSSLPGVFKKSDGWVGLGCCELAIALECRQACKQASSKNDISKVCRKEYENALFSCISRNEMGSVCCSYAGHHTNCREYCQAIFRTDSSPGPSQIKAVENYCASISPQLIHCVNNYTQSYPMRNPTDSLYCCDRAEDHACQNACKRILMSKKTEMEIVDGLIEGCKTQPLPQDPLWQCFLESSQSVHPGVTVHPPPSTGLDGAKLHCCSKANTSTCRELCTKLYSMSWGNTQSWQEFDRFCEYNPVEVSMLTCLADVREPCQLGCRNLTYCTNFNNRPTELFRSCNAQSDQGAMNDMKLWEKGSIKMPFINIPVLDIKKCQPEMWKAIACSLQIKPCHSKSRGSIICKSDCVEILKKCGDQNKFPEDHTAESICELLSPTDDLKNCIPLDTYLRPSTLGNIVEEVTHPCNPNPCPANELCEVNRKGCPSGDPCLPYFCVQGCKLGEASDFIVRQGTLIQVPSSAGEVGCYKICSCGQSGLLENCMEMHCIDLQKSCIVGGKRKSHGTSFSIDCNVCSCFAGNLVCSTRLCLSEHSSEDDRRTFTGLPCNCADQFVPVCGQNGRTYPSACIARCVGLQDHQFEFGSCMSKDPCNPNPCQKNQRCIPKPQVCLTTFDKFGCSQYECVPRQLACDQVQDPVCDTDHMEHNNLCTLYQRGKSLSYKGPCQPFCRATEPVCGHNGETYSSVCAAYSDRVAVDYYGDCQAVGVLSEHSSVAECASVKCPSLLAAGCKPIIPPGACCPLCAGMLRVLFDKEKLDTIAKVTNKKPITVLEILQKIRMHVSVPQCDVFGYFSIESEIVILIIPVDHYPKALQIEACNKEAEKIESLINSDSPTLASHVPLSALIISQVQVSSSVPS
Description: cryo-EM structure.

In experiment [2] the target is T2, endogenous calreticulin (CALR) of HEK293 cells (human (endogenous in HEK293S GnTI-), UniProt P27797 18-417).
T2 sequence (looked up): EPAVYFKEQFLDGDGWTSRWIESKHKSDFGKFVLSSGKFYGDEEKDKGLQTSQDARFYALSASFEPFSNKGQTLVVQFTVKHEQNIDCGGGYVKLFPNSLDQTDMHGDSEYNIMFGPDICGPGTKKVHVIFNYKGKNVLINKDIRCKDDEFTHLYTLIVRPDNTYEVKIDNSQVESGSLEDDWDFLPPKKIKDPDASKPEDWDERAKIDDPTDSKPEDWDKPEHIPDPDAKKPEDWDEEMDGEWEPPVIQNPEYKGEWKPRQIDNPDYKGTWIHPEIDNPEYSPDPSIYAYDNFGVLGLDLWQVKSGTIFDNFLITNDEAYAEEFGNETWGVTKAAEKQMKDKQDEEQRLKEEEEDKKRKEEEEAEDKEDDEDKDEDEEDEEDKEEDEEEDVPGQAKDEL
In words: cryo-EM structure.

In experiment [3] the target is T3, human Wntless (WLS) with a C-terminal Flag tag (human, UniProt Q5T9L3 1-541).
T3 sequence: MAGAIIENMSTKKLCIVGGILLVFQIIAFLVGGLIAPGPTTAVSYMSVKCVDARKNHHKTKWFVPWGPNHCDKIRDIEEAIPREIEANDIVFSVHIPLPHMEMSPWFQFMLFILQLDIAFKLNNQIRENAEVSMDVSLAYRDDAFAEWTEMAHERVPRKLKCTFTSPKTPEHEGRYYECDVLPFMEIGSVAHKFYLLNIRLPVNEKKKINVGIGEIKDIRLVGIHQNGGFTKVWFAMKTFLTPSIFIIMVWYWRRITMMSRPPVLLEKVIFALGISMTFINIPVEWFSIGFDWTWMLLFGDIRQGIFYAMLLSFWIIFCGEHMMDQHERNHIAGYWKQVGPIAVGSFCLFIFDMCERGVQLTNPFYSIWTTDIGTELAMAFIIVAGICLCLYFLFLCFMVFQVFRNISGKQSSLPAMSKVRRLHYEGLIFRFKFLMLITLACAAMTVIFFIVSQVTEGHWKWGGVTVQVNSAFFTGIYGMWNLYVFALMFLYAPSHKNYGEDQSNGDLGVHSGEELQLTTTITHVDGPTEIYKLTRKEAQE
Description: co-IP.

In experiment [4] the target is T2, endogenous calreticulin (CALR) of …. In words: cryo-EM structure. This is another data set of the same source.
The target in experiment [5] is T3, human Wntless (WLS) with a C-terminal …. In words: cryo-EM structure.

Like-named read-outs stand apart in the source and are kept apart here.

B1: human Wnt7a with a C-terminal GG linker and 6xHis tag (ligand, UniProt O00755 32-349, looked up)
chain: LGASIICNKIPGLAPRQRAICQSRPDAIIVIGEGSQMGLDECQFQFRNGRWNCSALGERTVFGKELKVGSREAAFTYAIIAAGVAHAITAACTQGNLSDCGCDKEKQGQYHRDEGWKWGGCSADIRYGIGFAKVFVDAREIKQNARTLMNLHNNEAGRKILEENMKLECKCHGVSGSCTTKTCWTTLPQFRELGYVLKDKYNEAVHVEPVRASRNKRPTFLKIKKPLSYRKPMDTDLVYIEKSPNYCEEDPVTGSVGTQGRACNKTAPQASGCDLMCCGRGYNTHQYARVWQCNCKFHWCCYVKCNTCSERTEMYTCK
modifications: palmitoleate moiety (PAM) on the conserved serine of hairpin 2; N-glycan at Asn295
On to B1, for which the binding result in experiment [1] and in experiment [2] was “binds” throughout.

B2: human Wnt7a with a C-terminal GG linker and Strep tag (ligand, UniProt O00755 32-349, looked up)
chain: B1 chain
modifications: palmitoleate moiety (PAM) on the conserved serine of hairpin 2; N-glycan at Asn295
As for B2, the binding result in experiment [3] is on record as “binds”.

B3: human Wnt3a without a tag (ligand, UniProt P56704 19-352, looked up)
chain: SYPIWWSLAVGPQYSSLGSQPILCASIPGLVPKQLRFCRNYVEIMPSVAEGIKIGIQECQHQFRGRRWNCTTVHDSLAIFGPVLDKATRESAFVHAIASAGVAFAVTRSCAEGTAAICGCSSRHQGSPGKGWKWGGCSEDIEFGGMVSREFADARENRPDARSAMNRHNNEAGRQAIASHMHLKCKCHGLSGSCEVKTCWWSQPDFRAIGDFLKDKYDSASEMVVEKHRESRGWVETLRPRYTYFKVPTERDLVYYEASPNFCEPNPETGSFGTRDRTCNVSSHGIDGCDLLCCGRGHNARAERRREKCRCVFHWCCYVSCQECTRVYDVHTCK
modifications: palmitoleate moiety (PAM); N-glycan at Asn298
For B3, the binding result in experiment [4] and in experiment [5] was “binds” in each case.
